In US10428347B2, “Herbicide-detoxifying enzymes and uses thereof” (priority 2017, dated 2019):

Legend:
[1] = NADPH consumption by immobilized salicylate monooxygenase with salicylic acid; format: biochemical; conditions: immobilized enzyme, salicylic acid 150 μM, 30° C., 60 minutes (FIG. 3)
Description: (§1) An additional experiment was performed to assess the substrate specificity of the salicylate monooxygenase (SM, SEQ ID NO: 21). […] The assay buffer also contained 0.5 mM FeSO4, 0.5 mM NADPH, 10 mM MgCl2, and 25 mM HEPES (pH 7). After 60 minutes, absorbance at 340 nm was measured to detect NADPH consumption. Data are represented as averages+/−SD from three independent reads of each reaction.

[2] = NADPH consumption by immobilized monooxygenases with 2,4-D; format: biochemical; conditions: immobilized enzyme, 2,4-D 150 μM, 30° C., 60 minutes, vs no enzyme negative control (FIG. 3)
Description: Monooxygenases can be used to detoxify herbicides in a solution. Monooxygenases use NADPH as a co-factor when degrading substrates. Consumption of NADPH is proportional to the degradation of the substrate.
The ability of each of these enzymes to detoxify 2,4-D was evaluated in a similar manner. […] Aliquots were taken from the samples at 30 minute and one hour timepoints, and NADPH consumption was assessed by measuring absorbance at 340 nm.
as §1

[3] = test system: lentil plants; experiment: Lentil seeds coated with immobilized enzyme, grown in dicamba-containing soil; format: in vivo
Description: For each treatment group, eighteen lentil seeds were coated with immobilized salicylate monooxygenase (SM, SEQ ID NO: 21) or hydroxyphenylacetate monooxygenase (HPAM, SEQ ID NO: 30), or with a water-only control (H2O) or a control containing only the particles used for immobilization, without any enzyme (“Particle Alone”). […] 50 ml of water was selected as this is the saturation point of this soil at this scale. Herbicides were allowed to sit in the soil for 24 hours before planting of coated seeds. Germination rate was measured at one week and root and shoot lengths were measured after two weeks.
Further data illustrating the protective effects of salicylate monooxygenase (SM) and hydroxyphenylacetate monooxygenase (HPAM) on lentil plants grown in dicamba-containing soil are provided in FIGS. 6-9. Lentil seeds were treated as described above with water alone, particle alone, or enzyme immobilized on a particle. […] Growth (shoot and root length) was measured at two weeks.

[4] = test system: soybean seedlings; experiment: Spray of enzyme-treated dicamba solution onto soybean seedlings; format: in vivo; conditions: 208 μM dicamba, immobilized enzyme, 30° C., soybean seedlings, one week
Description: Salicylate monooxygenase (SM, SEQ ID NO: 21) and hydroxyphenylacetate monooxygenase (HPAM, SEQ ID NO: 30) were immobilized on particles. […] Aliquots (1 ml) were taken from incubated samples at 0 minutes, 10 minutes, 30 minutes, 1 hour, 5 hours, 24 hours and 30 hours after the introduction of SM and immediately frozen to stop the detoxification reaction. NADPH consumption was quantified by measuring loss of absorbance at 340 nm using a spectrophotometer. Results for SM are shown in panel A of FIG. 10 and results for HPAM are shown in panel A of FIG. 11. Consumption of NADPH is proportional to the degradation of dicamba.
Immediately after taking the absorbance measurements, the 1 ml aliquots were mixed with a nonionic organosilicone surfactant copolymer (0.1% SILWET L77) and 200 μL of the mixture was sprayed onto 2.5-week-old soybean seedlings (six plants per treatment group, on average). The use of the surfactant ensured even distribution of the solutions on the plants. Control plants were sprayed with water+surfactant alone or dicamba+surfactant alone. After one week, the degree of herbicide damage or the degree of protection from dicamba-induced injury (in plants treated with SM) was assessed visually.

[5] = NADPH consumption by immobilized monooxygenases with dicamba; format: biochemical; conditions: immobilized enzyme, dicamba 150 μM, 30° C., 60 minutes, vs no enzyme negative control (FIG. 3)
[6] = Absorbance spectra assay of dicamba degradation by ChD or CAC; conditions: dicamba 200 mg/L + enzyme at 20X dilution (5 μM), one hour at 37° C.
[7] = Absorbance spectra assay of MCPA-4 amine degradation by ChD or CAC; format: biochemical; conditions: one hour at 37° C.
Description: (§2) Small scale (1 mL) assays were performed to evaluate the ability of ChD and CAC to degrade MCPA-4 amine or mecoprop.
(§3) MCPA-4 amine and mecoprop have absorbance maxima (Amax) at approximately 230 and 280 nm. […] MCPA-4 amine or mecoprop end product generation is directly proportional to the degradation MCPA-4 amine or mecoprop, respectively.

[8] = test system: soybean plants; experiment: Field soybean plant protection assay with dicamba, CAC or ChD and MnSO4; conditions: field soybean V3-V6, dicamba reaction buffer 200 ppm with 50 mM MnSO4, after 11 days
Description: The CAC and ChD enzymes were generated in production batches as previously described and divided up into aliquots and centrifuged to remove any cellular debris. […] The dilution to achieve 200 ppm or 200 mg/L was made in 25 mM HEPES pH 7 in a 10 mL total volume. […] To each treatment, 0.01% SILWET L-77 surfactant was added. Then, 4 mL of reaction solution was applied evenly across 20 plants and compared to the untreated control plants applied to soybean grown in the same location in the field to minimize any field variability. After 11 days, the average trifoliate damage was evaluated by visual scoring.

[9] = Absorbance spectra assay of mecoprop degradation by ChD or CAC; format: biochemical; conditions: one hour at 37° C.
Description: as §2, §3

[10] = Absorbance spectra assay of 2,4-D degradation by ChD or CAC; format: biochemical; conditions: 2,4-D 200 mg/L + enzyme at 20X dilution (5 μM), one hour at 37° C.
[11] = 2,4-D degradation by TfdA (2,4-dichlorophenol colorimetric assay and HPLC); format: biochemical
Description: They were cloned, expressed, and produced in production batches as previously described for SM1 and other pesticide detoxifying enzymes. […] Reactions were then added to a 15 mL conical tube and placed in a shaker at 30° C. Aliquots consisting of 1 mL were taken from each reaction at the desired time points and flash frozen in a −80° C. freezer for later testing.
The 2,4-D degradation reaction samples were defrosted and vortexed. Samples consisting of 200 μL of each reaction were removed and placed in a 96 well plate. To each well on the assay plate containing a reaction sample, […] pH 10 (0.309 g boric acid, 0.373 g potassium chloride, 4.4 mL 1 M NaOH per 100 mL solution), 2 μL 2% 4-aminoantipyrine, and 2 μL 8% potassium ferricyanide were added. The wells were mixed by back pipetting. The plate was then covered with a film and placed in a 30° C. incubator for 1 hour.

[12] = test system: soybean plants; experiment: Soybean seed treatment with chlorothalonil dehalogenase, simulated spray drift of dicamba or 2,4-D; format: in vivo; conditions: soybean seed coated with 3 uL enzyme, 4 weeks after planting; for Percentage Increase in Plant Height Compared to Untreated Seed (2,4-D; Weedar ®64 Spray Treatment) / Percentage Increase in Total Plant Biomass Compared to Untreated Seed (2,4-D; Weedar ®64 Spray Treatment): over the top 2,4-D 500 ppm; for Percentage Increase in Plant Height Compared to Untreated Seed (Dicamba; Clash ™ Spray Treatment) / Percentage Increase in Total Plant Biomass Compared to Untreated Seed (Dicamba; Clash ™ Spray Treatment): over the top dicamba 100 ppm
Description: Soybean (variety Asgrow AG4034) seed received a seed treatment with chlorothalonil dehalogenase (SEQ ID NO: 169) enzyme obtained from a production batch produced in a manner similar to that was described previously to generate the SM1 enzyme. Seed treatments were applied prior to planting. […] Seeds were then planted directly into 39.7 cm^3 pots containing a mixture of 3:1 Timberline top soil to MIRACLE GRO potting soil at a depth of 2.54 cm, with 2 seeds per pot. After planting, 50 mL of room temperature water was added to each pot to allow for germination. […] The treatments were then placed in a greenhouse and randomized using a complete block design to adjust for temperature and lighting differences. The plants received the same day/night cycle that would occur in the field on a summer's day. After the initial watering, plants received the same watering regimes. […] The soybean plants were then harvested and measured for biomass and plant height 4 weeks after planting.

[13] = test system: soybean plants; experiment: V1 soybean bioassay of dicamba reacted with ChD with or without MnSO4; conditions: dicamba 100-200 ppm
Description: Soybean plants (variety Morsoy Xtra) were planted in Timberline soil (2 seeds per pot) and grown for 12 days under controlled environmental growth conditions: 300 μmol m^−2 s^−1 (light photons) for a 13/11 light/day cycle and a 21° C. day/15° C. night temperature range until the V1 stage of development.
The dilution to achieve 100 ppm or 100 mg/L was made in 25 mM HEPES pH 7 in a 10 mL total volume. […] The ChD enzyme production was centrifuged to remove any cellular debris and then divided into aliquots of 100 μL containing the Bacillus subtillis (A64) filtrate with the ChD expressed enzyme. […] The reactions were incubated at 37° C. with 400 ppm stirring for two hours. Aliquots of the reactions were collected and stored at −80° C.

[14] = listed as Chlorothalonil dehalogenase (SEQ ID NO: 169)

B1: SM: salicylate monooxygenase from Bacillus cereus BGSC 6E1, amino acid SEQ ID NO: 21 (nucleotide SEQ ID NO: 1) (protein, listed as Bacillus cereus)
chain: MNNVIIIGGGIAGLCAAISLQKIGLDVKVYDKNTEPTVAGAGIIIAPNAMQALELYGISKKIKKFGNESDGFNLVSEKGTTFNKLIIPTCYPKMYSIHRKDLHQLLLSELKEDTVKWGKECVKIEQNEANALKIVFQDGSEALGNILIAADGIHSVIRKQVTQGDNYRYAGYTCWRGVTPANNLSLTNDFIETWGTNGRFGIVPLPNNEVYWYALINAKARDPKYKAYTTTDLYNHFKTYHNPIPSILKNASDIDMIHRDIIDITPMKQFFDKRIVFIGDAAHALTPNLGQGACQAIEDAIILAECIKNNAHYRQAFLEYEQKRRDRIEKISNTAWKVGKMAQIESKPLTLVRNEVMKRMPKWVSEKRTHELYSFHL
In the case of B1, the NADPH consumption [1] is reported as “higher activity”, the NADPH consumption [2] is reported as “statistically significant levels” and the germination rate ([3]; lentil seeds coated with immobilized enzyme, soil with dicamba 0.1× or […] label rate, one week, vs water and particle-alone controls) is reported as “positive effect”. For the same molecule, the shoot length ([3]; two-week-old lentil, soil with dicamba 0.1× label rate (0.588 mg/L), vs water only or particle only controls (FIG. 6, FIG. 8)) was “increased shoot lengths”, the “incubation time of enzyme with dicamba giving plants equivalent to the water control” value [4] was no more than 10 min and the NADPH consumption [5] was “statistically significant levels”.

B2: CAC: 6-chloronicotinic acid chlorohydrolase from Bradyrhizobiaceae strain SG-6C, amino acid SEQ ID NO: 167 (protein)
chain: MSLIAIKNADWILTMDGARRVIADGSILIDKDRIRAIGKSAVIEIPPETTKVIDGRGKVVLPGLIDSHTHHSLHLGRGLADECDIQTFLYRRLYPIEASLNDEDAYISALLCQLEMIKSGTTSIIDAGNYFPEATLRAFGTTGMRGVVARSTFDIPTSSLGSLPAQVFAEETNVALKRAEEFVERNSGACDGRVQAWLQLRVLPNCSDELCRGLKSIADRLGVRYEAHAAFTKEVYEASKLQFGKSEVRRLDDLGILGEGLLLAHMGWLTPRDILLLISSKTNVVLCPTSSVHQAMGSIAFGHVPELLEMGVNVALGTDGGPHGTNDLVRQIFVAAGGYKEVRLDATIMPPETVLEMATVNGARAMGMSDQVGSIEPGKKADITIFDSRRPEWRPLHNPVANLVYCANGNSADTVIVDGRILMENRKILTFNEDDVITEAQRRSVEIGARAGLLEYGRPRWPVH
modifications: Bradyrhizobiaceae family
In the case of B2, the “Percent (%) increase in 259 λ (end product formed) compared to dicamba control” value [6] is reported as 344%, the “Percent (%) increase in 252 λ (end product formed) compared to MCPA-4-Amine control” value ([7]; MCPA-4 amine 200 mg/L + enzyme at 20X dilution (5 μM)) is reported as 340% and the “Percent (%) increase in 252 λ (end product formed) compared to MCPA-4-Amine control” value ([7]; MCPA-4 amine 200 mg/L + enzyme at 40X dilution ([…])) is reported as 195%. The “average trifoliate damage score” value [8] was 1.0, the “Percent (%) increase in 252 λ (end-product formed) compared to Mecoprop control” value ([9]; mecoprop 200 mg/L + enzyme at 20X dilution (5 μM)) was 346% and the “Percent (%) increase in 252 λ (end-product formed) compared to Mecoprop control” value ([9]; mecoprop 200 mg/L + enzyme at 40X dilution ([…])) was 130%. For the same molecule, the “Percent (%) increase in 252 λ, (end product formed) compared to 2,4-D control” value [10] was 148%.

B3: TfdA: 2,4-D alpha-ketoglutarate dioxygenase with A198V mutation, SEQ ID NO: 277 (protein, UniProt P10088 1-287, looked up)
Alpha-ketoglutarate-dependent …: MSVVANPLHPLFAAGVEDIDLREALGSTEVREIERLMDEKSVLVFRGQPLSQDQQIAFARNFGPLEGGFIKVNQRPSRFKYAELADISNVSLDGKVAQRDAREVVGNFANQLWHSDSSFQQPAARYSMLSAVVVPPSGGDTEFCDMRAAYDALPRDLQSELEGLRAEHYALNSRFLLGDTDYSEAQRNAMPPVNWPLVRTHAGSGRKFLFIGAHASHVEGLPVAEGRMLLAELLEHATQREFVYRHRWNVGDLVMWDNRCVLHRGRRYDISARRELRRATTLDDAVV
In the case of B3, the “2,4-dichlorophenol generated” value ([11]; 2,4-D with TfdA enzyme, after 1 hour of incubation, 30° C. (FIG. 19)) is reported as “over 2 mg/L” and the “reduction of 2,4-D concentration quantified by HPLC” value ([11]; 2,4-D with TfdA, at 4 hours (FIG. 20)) is reported as roughly 10%.

B4: ChD (SEQ ID NO: 169): chlorothalonil dehalogenase from Pseudomonas species strain CTN-3 with fifteen amino acid N-terminal truncation, SEQ ID NO: 169 (protein, listed as Pseudomonas sp.)
chain: MPLKFSGVLCASLLTITLSVAAHATELILDFNKVQMRSQQLAPGVYAHLPADSAELNAKGGVAGTSGGLIVGTRGAMLIETMLNRRLFDQVQALAKKEALGLPLLYAVNTSYHGDHSYGNMYLKAPTRVIQSTKTRDYVDGHLADDKAFMVKNFGAGRGVEQITARTGDILVPPGGRVSVDLGGKTVEIIDFGFAQTGGDLFVWEPQSKVMWTGNAVVASKPALPWLLDGKLVETLATLQKVYDFLPPDATIVPGHGVPMAREGLRWHLDYLAAVQAGVKDALARKLSLEQTVTELKMPEFRGYVLFDWVHPDLNVPAAYKDLAARP
For B4, the “average trifoliate damage score” value [8] was 1.1, the “Percentage Increase in Plant Height Compared to Untreated Seed (2,4-D; Weedar ®64 Spray Treatment)” value [12] was “+6%” and the “Percentage Increase in Total Plant Biomass Compared to Untreated Seed (2,4-D; Weedar ®64 Spray Treatment)” value [12] was “+6%”. The “Percentage Increase in Plant Height Compared to Untreated Seed (2,4-D; Weedar ®64 Spray Treatment)” value [12, 14] was “+6%”, the “Percentage Increase in Total Plant Biomass Compared to Untreated Seed (2,4-D; Weedar ®64 Spray Treatment)” value [12, 14] was “+6%” and the “Percentage Increase in Plant Height Compared to Untreated Seed (Dicamba; Clash ™ Spray Treatment)” value [12] was “+35%”. For the same molecule, the “Percentage Increase in Total Plant Biomass Compared to Untreated Seed (Dicamba; Clash ™ Spray Treatment)” value [12] was “+149%”, the “Percentage Increase in Plant Height Compared to Untreated Seed (Dicamba; Clash ™ Spray Treatment)” value [12, 14] was “+35%” and the “Percentage Increase in Total Plant Biomass Compared to Untreated Seed (Dicamba; Clash ™ Spray Treatment)” value [12, 14] was “+149%”. The “epinasty score and damage score on the trifoliate leaves compared to dicamba applied alone” value [13] was “decrease in damage”.
